Source: PMC7603314, “Broad-complex transcription factor mediates opposing hormonal regulation of two phylogenetically distant arginine kinase genes in Tribolium castaneum” (Communications Biology, 2020)

B1: TcAK1 (Tribolium castaneum) (protein)
chain: MVDAAVLEKLEAGFKKLEASDSKSLLKKYLTRELFDKLKTKKTSFGSTLLDVIQSGLENHDSGIGIYAPDADSYSVFADLFDPIIEDYHGGFKKTDKHPPKDWGDVNAFGNLDPAGEFVVSTRVRCGRSLEGYPFNPCLTEEQYKEMEQKVSSTLSGLEGELKGTFYPLTGMSKEVQQKLIDDHFLFKEGDRFLQAANACRFWPTGRGIFHNDAKTFLVWCNEEDHLRIISMQMGGDLGQVYRRLVTGVNDIEKRLPFSHSDRFGFLTFCPTNLGTTVRASVHIKVPKLAANKAKLDEVAAKFNLQVRGTRGEHTEAEGGVYDISNKRRMGLTEFDAVKEMYDGISEIIKMEKEL
notes: His-tagged in pQE-30-XA, E. coli M15, Ni-NTA; signature CP(S/T)N(I/L)GT at 270-276
B2: TcAK2 (Tribolium castaneum) (protein)
chain: MAKAKCHNCETKCGKGKINPEVLTKLEDGFRRLATSNSQSLLKKYLTQAVFDKLKSKKTGFGSTLLDCIQSGLENPDSNIGVYAPDPEAYTVFAELFDPIIDEYHGGFKKTDQHPASTWGDLKSIGDVDPDQKYVVSTRIRCGRSLAGYPFNPCLTEAQYKEMEKKVSGTLMSLTGELKGKYYPLTGMSKRDQQQLIDDHFLFKEGDRFLQAANACRFWPTGRGIFHNTKKTFLVWLNEEDHLRIISMQKGGNVGEVYQRLVCAVEEIETKLKFSRSDRFGYLTFCPTNLGTTIRASVHIQVPKLAKDKAKLEAVANQFNLQVRGTRGEHSEAEEGVYDISNRRRLGLTEYDAVKEMHDGILKIIEMESCM
notes: His-tagged in pQE-30-XA, E. coli M15, Ni-NTA; signature CP(S/T)N(I/L)GT at 286-292

Substrate: N=C(N)NCCC[C@H](N)C(=O)O
Assay: purified protein
Type: biochemical, Tribolium castaneum
Details: forward reaction, 0.9 mM ATP, 20 mM MgCl2, 50 mM Tris-HCl pH 7.5, 30 °C, L-arginine varied 0.2-10 mM

Row | Protein | Km | kcat | kcat/Km
1 | B1 | 1500 ± 20 µM | 172.7 ± 5.8 s⁻¹ | 113000 M⁻¹ s⁻¹
2 | B2 | 3700 ± 40 µM | 12.7 ± 0.95 s⁻¹ | 3500 M⁻¹ s⁻¹
